The values below come from paper PMC6987189, “Native aggregation is a common feature among triosephosphate isomerases of different species” (Scientific Reports, 2020).

Series [1] deals with the molecule itself. Put plainly: native gel or EMSA; clear native electrophoresis (CN-PAGE), normal polarity (cathode-anode), 4-10% gradient gels, HEPES/imidazole pH 7.0 (40.0/15.3, 88.9/34.0 or 133.2/50 mM in the gel), 150 V, 4 °C, 5 h, ten micrograms of purified enzyme; masses from ferritin and albumin markers, means of the gel conditions; also after 10 mM DTT; dimers to higher aggregates. A general note: Mobility shift assays separate free from complexed probe on a gel.

Series [2] deals with the molecule itself. Put plainly: native gel or EMSA; clear native electrophoresis (CN-PAGE), inverse polarity (anode-cathode), 4-10% gradient gels, HEPES/imidazole pH 7.0, 150 V, 4 °C, 5 h, ten micrograms of purified enzyme; no mass markers; dimers to higher aggregates.

Where “and” joins values, the source holds several entries; their conditions need not be identical. Identical values can stand only once.

B1: Taenia solium triosephosphate isomerase (enzyme, UniProt Q9GTX8 1-250, looked up)
chain: MTRKLFVGGNWKMNGSYSHINTFFDTLQKADTDPNADIVIGVPACYLKYAQDKAPKGIKIAAENCYKVGSGAFTGEISTEMIKDCGCEWVILGHSERRHIFGESNELIGEKVKHALDSGLNVIPCIGELLSEREAGKTNDVCFAQMDAIAKNVPSKEAWDKVVIAYEPVWAIGTGKTATPAQAQEVHKVVRDWIRKHVDAGIADKVRILYGGSVTASNAKDLGTQPDVDGFLVGGASLKPDFITIINARR
notes: triosephosphate isomerase (TIM), Taenia solium; gene cloned into pRSET; also called TsTIM; Ts; source: E. coli Bl21 (DE3)-p-Lys S, purified (ammonium sulphate, Butyl-650M, Source 15Q)
Take B1: in series [1], the “stoichiometry N” value is 11 dimers in the aggregate and 8.5 dimers in the aggregate.

B2: Leishmania mexicana triosephosphate isomerase (enzyme, UniProt P48499 1-251, looked up)
chain: MSAKPQPIAAANWKCNGTTASIEKLVQVFNEHTISHDVQCVVAPTFVHIPLVQAKLRNPKYVISAENAIAKSGAFTGEVSMPILKDIGVHWVILGHSERRTYYGETDEIVAQKVSEACKQGFMVIACIGETLQQREANQTAKVVLSQTSAIAAKLTKDAWNQVVLAYEPVWAIGTGKVATPEQAQEVHLLLRKWVSENIGTDVAAKLRILYGGSVNAANAATLYAKPDINGFLVGGASLKPEFRDIIDATR
notes: triosephosphate isomerase (TIM), Leishmania mexicana; gene cloned into pET-3aHIS; also called LmTIM; Lm; source: E. coli Bl21 (DE3)-p-Lys S, purified (ammonium sulphate, Butyl-650M, Source 15Q)
As to B2, in series [2], the binding result is listed as “binds”.

B3: Trypanosoma cruzi triosephosphate isomerase (enzyme, UniProt P52270 1-251, looked up)
chain: MASKPQPIAAANWKCNGSESLLVPLIETLNAATFDHDVQCVVAPTFLHIPMTKARLTNPKFQIAAQNAITRSGAFTGEVSLQILKDYGISWVVLGHSERRLYYGETNEIVAEKVAQACAAGFHVIVCVGETNEEREAGRTAAVVLTQLAAVAQKLSKEAWSRVVIAYEPVWAIGTGKVATPQQAQEVHELLRRWVRSKLGTDIAAQLRILYGGSVTAKNARTLYQMRDINGFLVGGASLKPEFVEIIEATK
notes: triosephosphate isomerase (TIM), Trypanosoma cruzi; gene cloned into pET-3a; the aggregates are counted in dimers; also called TcTIM; Tc; source: E. coli Bl21 (DE3)-p-Lys S, purified (SP Sepharose fast flow, Butyl toyopearl, ammonium sulphate precipitation)
On to B3, for which the binding result in series [2] was “binds”.

B4: Thermus thermophilus triosephosphate isomerase (enzyme, UniProt Q5SJR1 1-250, looked up)
chain: MRRVLVAGNWKMHKTPSEARVWFAELKRLLPPLQSEAAVLPAFPILPVAKEVLAETQVGYGAQDVSAHKEGAYTGEVSARMLSDLGCRYAIVGHSERRRYHGETDALVAEKAKRLLEEGITPILCVGEPLEVREKGEAVPYTLRQLRGSLEGVEPPGPEALVIAYEPVWAIGTGKNATPEDAEAMHQAIRKALSERYGEAFASRVRILYGGSVNPKNFADLLSMPNVDGGLVGGASLELESFLALLRIAG
notes: gene cloned into pET-3aHIS; also called TtTIM; Tt; source: E. coli Bl21 (DE3)-p-Lys S, purified (ammonium sulphate, Butyl-650M, Source 15Q)
As for B4, in series [1], the “stoichiometry N” value came to 9 dimers in the aggregate.

As usually defined, the stoichiometry N is the number of molecules, sites or subunits per partner or assembly.
